In publication PMC10616090, “Tailoring FPOX enzymes for enhanced stability and expanded substrate recognition” (Scientific Reports, 2023):
Where no end group is shown, it is not given here.

B1: PnFPOX (WT) (Parastagonospora nodorum SN15) (protein)
chain: MAPSRANTSVIVVGGGGTIGSSTALHLVRSGYTPSNVTVLDAYPIPSSQSAGNDLNKIMGVSLRNPVDLQLALEARQMWNEDELFKKFFHNTGRLDCAHGEKDIADLKSGYQALVDAGLDATNEWLDSEDEILKRMPLLSRDQIKGWKAIFSKDGGWLAAAKAINAVGEYLRDQGVRFGFYGAGSFKAPLLAEGVCIGVETVDGTRYYADKVVLAAGAWSPTLVELHEQCVSKAWVYGHIQLTPEEAARYKNSPVVYNGDVGFFFEPNEHGVIKVCDEFPGFTRFKMHQPFGAKAPKRISVPRSHAKHPTDTIPDASDVSIRRAIATFMPQFKNKKMFNQAMCWCTDTADAALLICEHPEWKNFVLATGDSGHSFKLLPNIGKHVVELLEGTLADDLAHAWRWRPGSGDALKSRRSAPAKDLADMPGWNHDKPRANL
notes: C-terminal 6His tag (kept), recombinant in E. coli BL21 Star (DE3); pET15b or pET17b; FAD enzyme

Tests used:
[1] = biological target: X02C variant of PnFPOX (derived from L3-35A through X02A) (Phaeosphaeria nodorum)
[2] = biological target: Phaeosphaeria nodorum fructosyl peptide oxidase (PnFPOX), wild type (Phaeosphaeria nodorum)
[3] = substrate: CC(C)[C@H](NC[C@@]1(O)OC[C@@H](O)[C@@H](O)[C@@H]1O)C(=O)O; test: glucosone release, o-phenylenediamine, A322, Lineweaver-Burk fit; type: biochemical, Parastagonospora nodorum; conditions: 20 mM Tris HCl pH 7.4, 25 °C, 20 mM o-phenylenediamine, substrate 0.05-10 mM
Source text: glucosone release, o-phenylenediamine, A322, Lineweaver-Burk fit on PnFPOX (WT)

Row | Binder | Km for F6P in the enzymatic activity assay (glucosone release at 322 nm, F6P 0.05 to 1 mM, Lineweaver-Burk fit) [1] [µM] | Km for F6P in the enzymatic activity assay (glucosone release at 322 nm, F6P 0.05 to 1 mM, Lineweaver-Burk fit) [2] [µM] | Km [3] [µM] | Vmax [3] [µM/min] | kcat [3] [s⁻¹] | kcat/Km [3] [M⁻¹ s⁻¹]
1 | {1‑deoxyfructosyl}-VHLTPE [fructosyl-Val-His-Leu-Thr-Pro-Glu hexapeptide (F6P)] | 30 | 810 | – | – | – | –
2 | B1 | – | – | 5930 ± 1610 | 41700 | 99.3 ± 19.9 | 16800
